Data from the supplement of paper PMC9112550, “Optimization of the antimicrobial peptide Bac7 by deep mutational scanning” (BMC Biology, 2022).

Tested on: Escherichia coli TOP10
Assay: shrunken log2 fold change of peptide-encoding DNA abundance (4.5 h post-induction vs induction); higher = less antimicrobial activity (less host growth inhibition)
Conditions: time post-induction: 4.5 h; library: site-saturation at positions 5, 18, 19, 20
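Also: peptides expressed intracellularly from a pBAD plasmid library in pooled LB shake-flask culture, induced with 0.3% L-arabinose, DNA abundance read by NGS, three biological replicates, DESeq2 with apeglm shrinkage.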

## RRIRMRPPRLPRPRPRPAMVPRP
  shrunken log2 fold change: 0.501

## RRIRMRPPRLPRPRPRPAPAPRP
  shrunken log2 fold change: 1.53

## RRIRMRPPRLPRPRPRPAQHPRP
  shrunken log2 fold change: 0.0457

## RRIRMRPPRLPRPRPRPARIPRP
  shrunken log2 fold change: 0.56

## RRIRMRPPRLPRPRPRPASCPRP
  shrunken log2 fold change: 0.629

## RRIRMRPPRLPRPRPRPASEPRP
  shrunken log2 fold change: 0.145

## RRIRMRPPRLPRPRPRPASNPRP
  shrunken log2 fold change: 0.421

## RRIRMRPPRLPRPRPRPASQPRP
  shrunken log2 fold change: 0.174

## RRIRMRPPRLPRPRPRPASRPRP
  shrunken log2 fold change: 0.201

## RRIRMRPPRLPRPRPRPAVFPRP
  shrunken log2 fold change: 0.383

## RRIRMRPPRLPRPRPRPAVTPRP
  shrunken log2 fold change: 0.177

## RRIRMRPPRLPRPRPRPAVVPRP
  shrunken log2 fold change: 0.287

## RRIRMRPPRLPRPRPRPAWIPRP
  shrunken log2 fold change: 0.052

## RRIRMRPPRLPRPRPRPAWRPRP
  shrunken log2 fold change: 0.533

## RRIRMRPPRLPRPRPRPCACPRP
  shrunken log2 fold change: 0.0487

## RRIRMRPPRLPRPRPRPCCTPRP
  shrunken log2 fold change: -0.229

## RRIRMRPPRLPRPRPRPCDDPRP
  shrunken log2 fold change: 0.553

## RRIRMRPPRLPRPRPRPCDLPRP
  shrunken log2 fold change: 0.041

## RRIRMRPPRLPRPRPRPCEFPRP
  shrunken log2 fold change: 0.00328

## RRIRMRPPRLPRPRPRPCEHPRP
  shrunken log2 fold change: 0.249

## RRIRMRPPRLPRPRPRPCFFPRP
  shrunken log2 fold change: 0.16

## RRIRMRPPRLPRPRPRPCFLPRP
  shrunken log2 fold change: -0.117

## RRIRMRPPRLPRPRPRPCFNPRP
  shrunken log2 fold change: -0.000544

## RRIRMRPPRLPRPRPRPCLCPRP
  shrunken log2 fold change: -0.0635

## RRIRMRPPRLPRPRPRPCLGPRP
  shrunken log2 fold change: 0.0639

## RRIRMRPPRLPRPRPRPCLKPRP
  shrunken log2 fold change: 0.12

## RRIRMRPPRLPRPRPRPCLVPRP
  shrunken log2 fold change: 0.0451

## RRIRMRPPRLPRPRPRPCMIPRP
  shrunken log2 fold change: -0.0212

## RRIRMRPPRLPRPRPRPCNDPRP
  shrunken log2 fold change: -0.165

## RRIRMRPPRLPRPRPRPCNSPRP
  shrunken log2 fold change: -0.138

## RRIRMRPPRLPRPRPRPCPFPRP
  shrunken log2 fold change: -0.241

## RRIRMRPPRLPRPRPRPCPGPRP
  shrunken log2 fold change: -0.000588

## RRIRMRPPRLPRPRPRPCQRPRP
  shrunken log2 fold change: 0.0132

## RRIRMRPPRLPRPRPRPCRHPRP
  shrunken log2 fold change: -0.0252

## RRIRMRPPRLPRPRPRPCRSPRP
  shrunken log2 fold change: 0.0369

## RRIRMRPPRLPRPRPRPCSCPRP
  shrunken log2 fold change: 0.183

## RRIRMRPPRLPRPRPRPCTEPRP
  shrunken log2 fold change: -0.0649

## RRIRMRPPRLPRPRPRPCTFPRP
  shrunken log2 fold change: -0.209

## RRIRMRPPRLPRPRPRPCYCPRP
  shrunken log2 fold change: -0.289

## RRIRMRPPRLPRPRPRPCYNPRP
  shrunken log2 fold change: -0.247

## RRIRMRPPRLPRPRPRPDAFPRP
  shrunken log2 fold change: 1.47

## RRIRMRPPRLPRPRPRPDAWPRP
  shrunken log2 fold change: 2.59

## RRIRMRPPRLPRPRPRPDCDPRP
  shrunken log2 fold change: 0.0709

## RRIRMRPPRLPRPRPRPDCGPRP
  shrunken log2 fold change: -0.167

## RRIRMRPPRLPRPRPRPDDIPRP
  shrunken log2 fold change: -0.00151

## RRIRMRPPRLPRPRPRPDDTPRP
  shrunken log2 fold change: 2.17

## RRIRMRPPRLPRPRPRPDEEPRP
  shrunken log2 fold change: 2.97

## RRIRMRPPRLPRPRPRPDEIPRP
  shrunken log2 fold change: 2.86

## RRIRMRPPRLPRPRPRPDEPPRP
  shrunken log2 fold change: 2.72

## RRIRMRPPRLPRPRPRPDEQPRP
  shrunken log2 fold change: 0.0522

## RRIRMRPPRLPRPRPRPDFDPRP
  shrunken log2 fold change: 0.15

## RRIRMRPPRLPRPRPRPDFPPRP
  shrunken log2 fold change: -0.0976

## RRIRMRPPRLPRPRPRPDHKPRP
  shrunken log2 fold change: 0.0228

## RRIRMRPPRLPRPRPRPDIHPRP
  shrunken log2 fold change: 0.335

## RRIRMRPPRLPRPRPRPDKSPRP
  shrunken log2 fold change: 0.283

## RRIRMRPPRLPRPRPRPDKWPRP
  shrunken log2 fold change: 0.934

## RRIRMRPPRLPRPRPRPDMHPRP
  shrunken log2 fold change: 1.15

## RRIRMRPPRLPRPRPRPDNAPRP
  shrunken log2 fold change: -0.267

## RRIRMRPPRLPRPRPRPDNKPRP
  shrunken log2 fold change: -0.336

## RRIRMRPPRLPRPRPRPDNYPRP
  shrunken log2 fold change: -0.0552

## RRIRMRPPRLPRPRPRPDPQPRP
  shrunken log2 fold change: 0.593

## RRIRMRPPRLPRPRPRPDPWPRP
  shrunken log2 fold change: 0.336

## RRIRMRPPRLPRPRPRPDQTPRP
  shrunken log2 fold change: 0.0101

## RRIRMRPPRLPRPRPRPDRPPRP
  shrunken log2 fold change: 0.107

## RRIRMRPPRLPRPRPRPDRVPRP
  shrunken log2 fold change: 0.0719

## RRIRMRPPRLPRPRPRPDSTPRP
  shrunken log2 fold change: 1.09

## RRIRMRPPRLPRPRPRPDWEPRP
  shrunken log2 fold change: 0.382

## RRIRMRPPRLPRPRPRPDYQPRP
  shrunken log2 fold change: -0.304

## RRIRMRPPRLPRPRPRPDYSPRP
  shrunken log2 fold change: -0.0167

## RRIRMRPPRLPRPRPRPEAKPRP
  shrunken log2 fold change: 2.72

## RRIRMRPPRLPRPRPRPEATPRP
  shrunken log2 fold change: 4.04

## RRIRMRPPRLPRPRPRPEAWPRP
  shrunken log2 fold change: 2.15

## RRIRMRPPRLPRPRPRPECKPRP
  shrunken log2 fold change: 0.0491

## RRIRMRPPRLPRPRPRPECLPRP
  shrunken log2 fold change: 1.6

## RRIRMRPPRLPRPRPRPECVPRP
  shrunken log2 fold change: 2.97

## RRIRMRPPRLPRPRPRPEDDPRP
  shrunken log2 fold change: -0.01

## RRIRMRPPRLPRPRPRPEDHPRP
  shrunken log2 fold change: 1.29

## RRIRMRPPRLPRPRPRPEDNPRP
  shrunken log2 fold change: 0.0325

## RRIRMRPPRLPRPRPRPEFDPRP
  shrunken log2 fold change: 2.44

## RRIRMRPPRLPRPRPRPEFRPRP
  shrunken log2 fold change: 0.275

## RRIRMRPPRLPRPRPRPEFSPRP
  shrunken log2 fold change: 1.51

## RRIRMRPPRLPRPRPRPEGLPRP
  shrunken log2 fold change: 0.0151

## RRIRMRPPRLPRPRPRPEGMPRP
  shrunken log2 fold change: 2.24

## RRIRMRPPRLPRPRPRPEHGPRP
  shrunken log2 fold change: 0.406

## RRIRMRPPRLPRPRPRPEIHPRP
  shrunken log2 fold change: 0.176

## RRIRMRPPRLPRPRPRPEIQPRP
  shrunken log2 fold change: 0.0386

## RRIRMRPPRLPRPRPRPEKVPRP
  shrunken log2 fold change: 1.45

## RRIRMRPPRLPRPRPRPELGPRP
  shrunken log2 fold change: 0.276

## RRIRMRPPRLPRPRPRPELQPRP
  shrunken log2 fold change: -0.00152

## RRIRMRPPRLPRPRPRPEMHPRP
  shrunken log2 fold change: 0.346

## RRIRMRPPRLPRPRPRPEMVPRP
  shrunken log2 fold change: 0.0598

## RRIRMRPPRLPRPRPRPENDPRP
  shrunken log2 fold change: 3.77

## RRIRMRPPRLPRPRPRPENYPRP
  shrunken log2 fold change: -0.0708

## RRIRMRPPRLPRPRPRPEPEPRP
  shrunken log2 fold change: 2.64

## RRIRMRPPRLPRPRPRPEPGPRP
  shrunken log2 fold change: 2.73

## RRIRMRPPRLPRPRPRPEQLPRP
  shrunken log2 fold change: 1.94

## RRIRMRPPRLPRPRPRPERMPRP
  shrunken log2 fold change: 1.35

## RRIRMRPPRLPRPRPRPESTPRP
  shrunken log2 fold change: 2.28

## RRIRMRPPRLPRPRPRPEVFPRP
  shrunken log2 fold change: 1.35

## RRIRMRPPRLPRPRPRPEWKPRP
  shrunken log2 fold change: 0.0511

## RRIRMRPPRLPRPRPRPEYQPRP
  shrunken log2 fold change: 0.0424

## RRIRMRPPRLPRPRPRPFAPPRP
  shrunken log2 fold change: 0.633

## RRIRMRPPRLPRPRPRPFAWPRP
  shrunken log2 fold change: 0.139

## RRIRMRPPRLPRPRPRPFCGPRP
  shrunken log2 fold change: -0.0687

## RRIRMRPPRLPRPRPRPFDGPRP
  shrunken log2 fold change: 0.136

## RRIRMRPPRLPRPRPRPFDMPRP
  shrunken log2 fold change: -0.192

## RRIRMRPPRLPRPRPRPFECPRP
  shrunken log2 fold change: 0.0161

## RRIRMRPPRLPRPRPRPFEIPRP
  shrunken log2 fold change: 0.0739

## RRIRMRPPRLPRPRPRPFFQPRP
  shrunken log2 fold change: -0.134

## RRIRMRPPRLPRPRPRPFFRPRP
  shrunken log2 fold change: 0.406

## RRIRMRPPRLPRPRPRPFIIPRP
  shrunken log2 fold change: -0.268

## RRIRMRPPRLPRPRPRPFIPPRP
  shrunken log2 fold change: -0.26

## RRIRMRPPRLPRPRPRPFKSPRP
  shrunken log2 fold change: -0.0472

## RRIRMRPPRLPRPRPRPFLQPRP
  shrunken log2 fold change: -0.0339

## RRIRMRPPRLPRPRPRPFLTPRP
  shrunken log2 fold change: 0.0674

## RRIRMRPPRLPRPRPRPFNLPRP
  shrunken log2 fold change: -0.16

## RRIRMRPPRLPRPRPRPFPNPRP
  shrunken log2 fold change: -0.288

## RRIRMRPPRLPRPRPRPFPYPRP
  shrunken log2 fold change: -0.23

## RRIRMRPPRLPRPRPRPFRAPRP
  shrunken log2 fold change: 0.452

## RRIRMRPPRLPRPRPRPFSAPRP
  shrunken log2 fold change: 0.138

## RRIRMRPPRLPRPRPRPFSFPRP
  shrunken log2 fold change: -0.0784

## RRIRMRPPRLPRPRPRPFSPPRP
  shrunken log2 fold change: -0.189

## RRIRMRPPRLPRPRPRPFTHPRP
  shrunken log2 fold change: -0.107

## RRIRMRPPRLPRPRPRPFTIPRP
  shrunken log2 fold change: -0.386

## RRIRMRPPRLPRPRPRPFVAPRP
  shrunken log2 fold change: 0.113

## RRIRMRPPRLPRPRPRPFVEPRP
  shrunken log2 fold change: -0.0699

## RRIRMRPPRLPRPRPRPFVPPRP
  shrunken log2 fold change: -0.375

## RRIRMRPPRLPRPRPRPFYCPRP
  shrunken log2 fold change: -0.118

## RRIRMRPPRLPRPRPRPFYLPRP
  shrunken log2 fold change: -0.191

## RRIRMRPPRLPRPRPRPFYPPRP
  shrunken log2 fold change: -0.401

## RRIRMRPPRLPRPRPRPGAIPRP
  shrunken log2 fold change: 1.4

## RRIRMRPPRLPRPRPRPGFRPRP
  shrunken log2 fold change: 0.525

## RRIRMRPPRLPRPRPRPGGCPRP
  shrunken log2 fold change: 0.888

## RRIRMRPPRLPRPRPRPGGLPRP
  shrunken log2 fold change: 0.818

## RRIRMRPPRLPRPRPRPGHEPRP
  shrunken log2 fold change: 0.086

## RRIRMRPPRLPRPRPRPGIDPRP
  shrunken log2 fold change: 0.403

## RRIRMRPPRLPRPRPRPGIFPRP
  shrunken log2 fold change: 0.00597

## RRIRMRPPRLPRPRPRPGIMPRP
  shrunken log2 fold change: 0.246

## RRIRMRPPRLPRPRPRPGKIPRP
  shrunken log2 fold change: 0.0308

## RRIRMRPPRLPRPRPRPGKSPRP
  shrunken log2 fold change: 0.0127

## RRIRMRPPRLPRPRPRPGLQPRP
  shrunken log2 fold change: 4.5

## RRIRMRPPRLPRPRPRPGLYPRP
  shrunken log2 fold change: -0.196

## RRIRMRPPRLPRPRPRPGMFPRP
  shrunken log2 fold change: 0.341

## RRIRMRPPRLPRPRPRPGMMPRP
  shrunken log2 fold change: 0.185

## RRIRMRPPRLPRPRPRPGMRPRP
  shrunken log2 fold change: 1.54

## RRIRMRPPRLPRPRPRPGMSPRP
  shrunken log2 fold change: -0.0593

## RRIRMRPPRLPRPRPRPGMYPRP
  shrunken log2 fold change: 0.124

## RRIRMRPPRLPRPRPRPGNYPRP
  shrunken log2 fold change: -0.0658

## RRIRMRPPRLPRPRPRPGPDPRP
  shrunken log2 fold change: 0.768

## RRIRMRPPRLPRPRPRPGPYPRP
  shrunken log2 fold change: -0.149
